In the Immune Epitope Database (IEDB):

How the values were obtained:
HLA-B*46:01 [1] = assay: IEDB peptide-MHC binding, purified MHC/competitive/fluorescence; filed as Kd, often an IC50 or EC50 that approximates it; ≥ and ≤ were set here for values at or beyond the usual limits of such assays; conditions: source organism: Psychromonas sp. PRT-SC03
HLA-A*69:01 = assay: IEDB peptide-MHC binding, purified MHC/direct/fluorescence; filed as Kd, often an IC50 or EC50 that approximates it; ≥ and ≤ were set here for values at or beyond the usual limits of such assays
HLA-B*15:01 [2] = assay: as above
HLA-B*35:01 = assay: as above
HLA-A*24:03 = assay: as above
HLA-B*58:01 = assay: as above
HLA-A*01:01 = assay: as above
HLA-A*11:01 [3] = assay: as above
HLA-B*40:01 = assay: as above
HLA-A*02:01 [4] = assay: as above
HLA-A*03:01 = assay: as above
HLA-A*26:01 = assay: as above
HLA-B*08:01 = assay: as above
HLA-B*07:02 = assay: as above
HLA-B*27:05 = assay: as above
HLA-B*46:01 [5] = assay: as above
HLA-C*14:02 = assay: as above; conditions: source organism: Azotobacter vinelandii DJ
HLA-B*08:02 = assay: as above
HLA-B*15:17 [6] = assay: as above; conditions: source organism: Coxiella burnetii
HLA-A*68:02 = assay: as above; conditions: source organism: Coxiella burnetii
HLA-B*18:01 = assay: as above
HLA-A*26:02 = assay: as above
HLA-B*57:01 [7] = assay: as above; conditions: source organism: Coxiella burnetii
HLA-A*31:01 = assay: as above
HLA-B*48:01 = assay: as above
HLA-B*15:01 [8] = assay: IEDB peptide-MHC binding, purified MHC/competitive/fluorescence; filed as Kd, often an IC50 or EC50 that approximates it; ≥ and ≤ were set here for values at or beyond the usual limits of such assays; conditions: source organism: Vibrio antiquarius
HLA-A*11:01 [9] = assay: as above; conditions: source organism: Vibrio antiquarius
HLA-A*02:06 = assay: as above; conditions: source organism: Vibrio antiquarius
HLA-B*15:17 [10] = assay: as above; conditions: source organism: Vibrio antiquarius
HLA-A*02:03 = assay: as above; conditions: source organism: Vibrio antiquarius
HLA-A*02:01 [11] = assay: as above; conditions: source organism: Vibrio antiquarius
HLA-B*57:01 [12] = assay: as above; conditions: source organism: Vibrio antiquarius
HLA-B*51:01 = assay: IEDB peptide-MHC binding, purified MHC/direct/fluorescence; filed as Kd, often an IC50 or EC50 that approximates it; ≥ and ≤ were set here for values at or beyond the usual limits of such assays; conditions: source organism: Vibrio parahaemolyticus AQ3810
HLA-A*29:02 [13] = assay: as above; conditions: source organism: Vibrio parahaemolyticus AQ3810
HLA-A*30:01 = assay: as above
HLA-B*44:02 = assay: as above
HLA-A*29:02 [14] = assay: IEDB peptide-MHC binding, purified MHC/competitive/fluorescence; filed as Kd, often an IC50 or EC50 that approximates it; ≥ and ≤ were set here for values at or beyond the usual limits of such assays
HLA-C*15:02 = assay: IEDB peptide-MHC binding, purified MHC/direct/fluorescence; filed as Kd, often an IC50 or EC50 that approximates it; ≥ and ≤ were set here for values at or beyond the usual limits of such assays; conditions: source organism: Cryptosporidium parvum Iowa II
[15] = source organism: Enterobacteria phage f1
[16] = source organism: Burkholderia mallei
[17] = source organism: Burkholderia mallei ATCC 23344
[18] = source organism: Coxiella burnetii
[19] = source organism: Coxiella burnetii Q321
[20] = source organism: Vibrio parahaemolyticus AQ3810
[21] = source organism: Vibrio parahaemolyticus
[22] = source organism: Giardia lamblia ATCC 50803
[23] = source organism: Escherichia coli O157:H7
[24] = source organism: Ectopseudomonas mendocina
[25] = source organism: Pseudomonas aeruginosa

TFMYVFSTF
Kd (HLA-B*46:01 [1]): ≥ 20 µM | Kd (HLA-A*69:01; [15]): ≥ 20 µM | Kd (HLA-B*15:01 [2]; source organism: Inovirus M13): 0.695 µM | Kd (HLA-B*35:01; source organism: Inovirus M13): 0.0806 µM | Kd (HLA-A*24:03; source organism: Inovirus M13): 0.00639 µM | Kd (HLA-B*58:01; source organism: Inovirus M13): 1.1 µM | Kd (HLA-A*01:01; [15]): ≥ 20 µM | Kd (HLA-A*11:01 [3]; [15]): ≥ 20 µM | Kd (HLA-B*40:01; [15]): ≥ 20 µM | Kd (HLA-A*02:01 [4]; source organism: Inovirus M13): 8.33 µM | Kd (HLA-A*03:01; [15]): ≥ 20 µM | Kd (HLA-A*26:01; [15]): ≥ 20 µM | Kd (HLA-B*08:01; [15]): ≥ 20 µM | Kd (HLA-B*07:02; [15]): ≥ 20 µM | Kd (HLA-B*27:05; [15]): ≥ 20 µM

AMYAPYGPF
Kd (HLA-B*15:01 [2]; [16]): ≤ 0.001 µM | Kd (HLA-B*35:01; [17]): 1.88 µM | Kd (HLA-B*46:01 [5]; [16]): 0.958 µM | Kd (HLA-C*14:02): 0.039 µM | Kd (HLA-B*07:02; [17]): 9 µM

VFFKQWFEK
Kd (HLA-A*69:01; [18]): ≥ 20 µM | Kd (HLA-B*15:01 [2]; [18]): ≥ 20 µM | Kd (HLA-B*08:02; [19]): ≥ 20 µM | Kd (HLA-B*58:01; [18]): ≥ 20 µM | Kd (HLA-A*01:01; [18]): ≥ 20 µM | Kd (HLA-A*11:01 [3]; [18]): 0.163 µM | Kd (HLA-B*15:17 [6]): ≥ 20 µM | Kd (HLA-B*46:01 [5]; [18]): ≥ 20 µM | Kd (HLA-B*40:01; [18]): ≥ 20 µM | Kd (HLA-A*68:02): ≥ 20 µM | Kd (HLA-B*18:01; [18]): ≥ 20 µM | Kd (HLA-A*26:02; [19]): ≥ 20 µM | Kd (HLA-A*02:01 [4]; [18]): ≥ 20 µM | Kd (HLA-B*57:01 [7]): ≥ 20 µM | Kd (HLA-A*03:01; [18]): 0.312 µM | Kd (HLA-A*31:01; [18]): 0.066 µM | Kd (HLA-B*48:01; [18]): ≥ 20 µM | Kd (HLA-A*26:01; [19]): ≥ 20 µM | Kd (HLA-B*08:01; [19]): ≥ 20 µM | Kd (HLA-B*07:02; [18]): ≥ 20 µM | Kd (HLA-B*27:05; [18]): ≥ 20 µM

LVAPHMAMM
Kd (HLA-B*15:01 [8]): 0.0965 µM | Kd (HLA-A*11:01 [9]): ≥ 20 µM | Kd (HLA-A*02:06): 0.0532 µM | Kd (HLA-B*15:17 [10]): 0.239 µM | Kd (HLA-A*02:03): 1.14 µM | Kd (HLA-A*02:01 [11]): 3.41 µM | Kd (HLA-B*57:01 [12]): 1.13 µM | Kd (HLA-B*08:02; [20]): ≥ 20 µM | Kd (HLA-B*58:01; [20]): 0.81 µM | Kd (HLA-A*01:01; [21]): ≥ 20 µM | Kd (HLA-B*46:01 [5]; [21]): 11 µM | Kd (HLA-B*40:01; [21]): ≥ 20 µM | Kd (HLA-B*51:01): ≥ 20 µM | Kd (HLA-A*29:02 [13]): 0.32 µM | Kd (HLA-B*18:01; [21]): ≥ 20 µM | Kd (HLA-A*03:01; [21]): ≥ 20 µM | Kd (HLA-A*31:01; [21]): ≥ 20 µM | Kd (HLA-B*48:01; [21]): ≥ 20 µM | Kd (HLA-A*30:01; [20]): ≥ 20 µM | Kd (HLA-B*27:05; [21]): ≥ 20 µM

CYPRLWGVR
Kd (HLA-A*69:01; [22]): ≥ 20 µM | Kd (HLA-B*44:02; [22]): ≥ 20 µM | Kd (HLA-B*15:01 [2]; [22]): ≥ 20 µM | Kd (HLA-B*58:01; [22]): ≥ 20 µM | Kd (HLA-A*01:01; [22]): ≥ 20 µM | Kd (HLA-A*11:01 [3]; [22]): ≥ 10 µM | Kd (HLA-B*40:01; [22]): ≥ 20 µM | Kd (HLA-A*02:01 [4]; [22]): ≥ 20 µM | Kd (HLA-A*03:01; [22]): ≥ 20 µM | Kd (HLA-A*30:01; [22]): 5.83 µM | Kd (HLA-A*26:01; [22]): ≥ 20 µM | Kd (HLA-B*08:01; [22]): ≥ 20 µM | Kd (HLA-B*07:02; [22]): 9.36 µM | Kd (HLA-B*27:05; [22]): ≥ 20 µM

ADLRFASEF
Kd (HLA-A*69:01; [23]): ≥ 20 µM | Kd (HLA-B*44:02; [23]): ≥ 20 µM | Kd (HLA-B*15:01 [2]; [23]): 0.93 µM | Kd (HLA-B*35:01; [23]): 0.937 µM | Kd (HLA-A*24:03; [23]): ≥ 20 µM | Kd (HLA-B*58:01; [23]): ≥ 20 µM | Kd (HLA-A*01:01; [23]): ≥ 20 µM | Kd (HLA-A*11:01 [3]; [23]): ≥ 20 µM | Kd (HLA-B*40:01; [23]): ≥ 20 µM | Kd (HLA-A*02:01 [4]; [23]): ≥ 20 µM | Kd (HLA-A*03:01; [23]): ≥ 20 µM | Kd (HLA-A*31:01; [23]): ≥ 20 µM | Kd (HLA-A*26:01; [23]): ≥ 20 µM | Kd (HLA-B*08:01; [23]): 3.84 µM | Kd (HLA-B*07:02; [23]): 11.7 µM | Kd (HLA-B*27:05; [23]): ≥ 20 µM

FSDARLAKL
Kd (HLA-A*69:01; [24]): ≥ 20 µM | Kd (HLA-B*15:01 [2]; [24]): ≥ 20 µM | Kd (HLA-B*35:01; [25]): 0.797 µM | Kd (HLA-A*24:03; [24]): ≥ 20 µM | Kd (HLA-B*58:01; [24]): ≥ 20 µM | Kd (HLA-A*01:01; [25]): 7.32 µM | Kd (HLA-A*11:01 [3]; [24]): ≥ 20 µM | Kd (HLA-B*40:01; [25]): 8.72 µM | Kd (HLA-A*02:01 [4]; [25]): 18 µM | Kd (HLA-A*03:01; [24]): ≥ 20 µM | Kd (HLA-A*31:01; [24]): ≥ 20 µM | Kd (HLA-A*26:01; [24]): ≥ 20 µM | Kd (HLA-B*08:01; [25]): 5.3 µM | Kd (HLA-B*07:02; [25]): 7.92 µM | Kd (HLA-B*27:05; [24]): ≥ 20 µM

PVPDFPYRY
Kd (HLA-A*29:02 [14]; source organism: Entamoeba dispar SAW760): 0.0068 µM

SFIPIFYQF
Kd (HLA-A*29:02 [14]; source organism: Cryptosporidium parvum Iowa II): 0.0022 µM | Kd (HLA-C*15:02): ≥ 20 µM

STYQPLPLY
Kd (HLA-B*15:01 [2]; [16]): 0.0245 µM | Kd (HLA-B*58:01; [16]): 0.195 µM | Kd (HLA-A*01:01; [16]): 0.971 µM | Kd (HLA-A*26:02; [17]): ≤ 0.001 µM | Kd (HLA-A*02:01 [4]; [16]): ≥ 20 µM | Kd (HLA-A*03:01; [16]): ≥ 20 µM | Kd (HLA-A*26:01; [17]): 0.039 µM | Kd (HLA-B*07:02; [16]): ≥ 20 µM | Kd (HLA-B*27:05; [16]): ≥ 20 µM

EFDNYRGTI
Kd (HLA-A*69:01; [22]): ≥ 20 µM | Kd (HLA-B*44:02; [22]): ≥ 20 µM | Kd (HLA-B*15:01 [2]; [22]): ≥ 20 µM | Kd (HLA-B*58:01; [22]): ≥ 20 µM | Kd (HLA-A*01:01; [22]): ≥ 20 µM | Kd (HLA-A*11:01 [3]; [22]): ≥ 20 µM | Kd (HLA-B*40:01; [22]): 16.5 µM | Kd (HLA-A*02:01 [4]; [22]): ≥ 20 µM | Kd (HLA-A*03:01; [22]): ≥ 20 µM | Kd (HLA-A*31:01; [22]): ≥ 20 µM | Kd (HLA-A*30:01; [22]): 7.45 µM | Kd (HLA-A*26:01; [22]): ≥ 20 µM | Kd (HLA-B*08:01; [22]): ≥ 20 µM | Kd (HLA-B*07:02; [22]): ≥ 20 µM | Kd (HLA-B*27:05; [22]): ≥ 20 µM
